Measured values taken from article PMC11962113, “An unusual glycerol-3-phosphate dehydrogenase in Sulfolobus acidocaldarius elucidates the diversity of glycerol metabolism across Archaea” (Communications Biology, 2025).

What was measured:
Saci_2032 (G3PDH) = target: T1, Saci_2032 (G3PDH) (Sulfolobus acidocaldarius, UniProt Q4J7A2); assay: absorption spectrum of bound FAD, […] nm, after SDS denaturation; type: binding; conditions: two FAD per homodimer; non-covalent per family; reduced by G3P at 70 °C
T1 construct: full length, N-terminal His tag (pET15b), E. coli Rosetta (DE3); homodimer with 2 FAD; without CoxG

Saci_1118 (G3PDH) = target: T2, Saci_1118 (G3PDH) (Sulfolobus acidocaldarius, UniProt Q4J9Q8); assay: as above; type: binding; conditions: two FAD per homodimer; non-covalent per family; reduced by G3P at 70 °C
T2 construct: full length, N-terminal His tag (pET15b), E. coli Rosetta (DE3); homodimer with 2 FAD; without CoxG

[1] = target: the molecule itself; assay: SEC; Superose 6 Increase 10/300 GL, 50 mM TRIS-HCl pH 7.5, 250 mM NaCl; GKs 50 µg in 200 µL, G3PDHs 19 mg Saci_2032 or 6 mg Saci_1118 in 500 µL; calibrated with LMW and HMW gel filtration kits; native mass compared with subunit mass
purified protein [2] = substrate: Nc1ncnc2c1ncn2[C@@H]1O[C@H](COP(=O)(O)OP(=O)(O)OP(=O)(O)O)[C@@H](O)[C@H]1O; assay: purified protein; type: biochemical, Sulfolobus acidocaldarius; conditions: 2 mM glycerol
purified protein [3] = substrate: OCC(O)CO; assay: purified protein; type: biochemical, Sulfolobus acidocaldarius
purified protein [4] = substrate: O=P(O)(O)OC[C@H](O)CO; assay: purified protein; type: biochemical, Sulfolobus acidocaldarius; conditions: 0.06 mM DCPIP as electron acceptor, 50 mM HEPES-KOH pH 6.5, 100 mM KCl, 70 °C
purified protein [5] = substrate: COC1=C(OC)C(=O)C(CC=C(C)C)=C(C)C1=O; assay: purified protein; type: biochemical, Sulfolobus acidocaldarius; conditions: 0.4 mM G3P, no DCPIP, 50 mM HEPES-KOH pH 6.5, 100 mM KCl, 70 °C
[6] = 5 mM ATP, 5 mM MgCl2, 0.1 M MOPS-KOH pH 6.5, 50 °C
[7] = 1 mM ATP, 1 mM MgCl2, 0.1 M TRIS-HCl pH 7, 50 °C

Row | Molecule | stoichiometry N [1] | Km (purified protein [4]) [µM] | Vmax (purified protein [4]) [µmol/min/mg] | kcat/Km (purified protein [4]) [M⁻¹ s⁻¹] | Km (purified protein [5]) [µM] | Vmax (purified protein [5]) [µmol/min/mg] | kcat/Km (purified protein [5]) [M⁻¹ s⁻¹] | also measured
1 | Cc1cc2nc3c(=O)[nH]c(=O)nc-3n(C[C@H](O)[C@H](O)[C@H](O)COP(=O)(O)OP(=O)(O)OC[C@H]3O[C@@H](n4cnc5c(N)ncnc54)[C@H](O)[C@@H]3O)c2cc1C [FAD] | – | – | – | – | – | – | – | absorption spectrum of bound FAD, 450 nm, after SDS denaturation (Saci_2032 (G3PDH)): a FAD content of two per homodimer was determined for both enzymes; absorption spectrum of bound FAD, 450 nm, after SDS denaturation (Saci_1118 (G3PDH)): a FAD content of two per homodimer was determined for both enzymes
2 | glycerol kinase Saci_2033 (enzyme, S. acidocaldarius DSM 639, UniProt Q4J7A3 1-497, looked up, Glycerol kinase Saci_2033 of Sulfolobus acidocaldarius DSM 639, 497 amino acids, calculated mass 55.3 kDa; ORF amplified from genomic DNA; also called GK; GlpK) MAEKYVIAIDEGTTSARAIVFDKELNILGIGQNEFTQYYPQPGYVEHSPEEIWQAQLLAINKALEKAKIDRNNILSIGITNQRETTVMWDTRTGKPIYNAIVWQDRRTAPITDYLKANYLRLIKDRTGLVPDPYFSASKIKWILDNIPNAREKAEKGEIKFGTIDTYLIWKLTNGKAHVTDYSNASRTMLFNIRKLEWDREILEILNIPEAILPDVKPSSEIYGYAEILNSSIPISGDAGDQQAALFGQIAFNQGDVKCTYGTGSFILLNTGSNLVSSNDLLTTIAWGVGKGITYALEGSIFITGAAVQWFRDGLRAIDVSDEIEPLAGSVPDNGGVYFVPAFTGLGAPYWDPYARGLIIGITRGTTKAHIARAILESMAYQTMDVLGIMQRDSGIKIDALKVDGGASKNDLLMQFQADILKMKVVRPKIMETTSMGVAMLAGLSVGYWNSMDELKQKWKIDQVFEPKMDDEYREKLYSGWKEAVRRALGWAKTIGG | 2 | – | – | – | – | – | – | Km (purified protein [2]; 0.1 M MOPS-KOH pH 6.5, 50 °C): 174 ± 19 µM; Vmax (purified protein [2]; 0.1 M MOPS-KOH pH 6.5, 50 °C): 91 µmol/min/mg; kcat/Km (purified protein [2]; 0.1 M MOPS-KOH pH 6.5, 50 °C): 485000 ± 57100 M⁻¹ s⁻¹; Km (purified protein [3]; [6]): 24 ± 4 µM; Vmax (purified protein [3]; [6]): 88.2 µmol/min/mg; kcat/Km (purified protein [3]; [6]): 1.31e+07 ± 2.2e+06 M⁻¹ s⁻¹
3 | glycerol-3-phosphate dehydrogenase Saci_1118 (His-tagged, recombinant) (enzyme, S. acidocaldarius DSM 639, UniProt Q4J9Q8 1-428, looked up, GlpA-like FAD-dependent glycerol-3-phosphate dehydrogenase Saci_1118 of Sulfolobus acidocaldarius DSM 639, calculated mass 46.9 kDa; ORF amplified from genomic DNA; also called G3PDH; GlpA-like; source: E. coli Rosetta (DE3), pET15b-saci_1118, purified (Nickel-IDA)) MKQNSSVIVIGGGATGLFTALDLSLRGINVTLVERGDIASGTSGKFHGLLHSGARYAVNDPESAKECKQENEVLSKIAPEFVRDTGGVFVGITEDDVNYSQRFLSALNSLGITNKVMDVEELIRREPFINKKSKIAIWVPDKVVYGYDLLATVALTASLNGAKILTYNEVKRVLREGNSVRRVEVKDNISGETKILNGDIIVNTAGPWAFRVIEMAGLGEIPLLPTAGIMVVMKEKLNSMVINRLRPPSDGDIIVPYGDSSIIGTTATIIPDPDNFEISDEDINMLIEEGAYMIPRLKEVKPERAYASVRPLIKNAEDGRGATRDFMIIDHEKVDSLDGLISVIGGKFTTSRLAGEKVSDMVSEKLGIREKSKTATIKLMSELDEKLLEKKRVPKVLVKMIRERKGSLDEDRYSTAMYILLSLLARGE | 2 | 19 ± 3 | 19.6 | 808000 ± 131000 | 86 ± 19 | 18.7 | 170000 ± 39700 | –
4 | glycerol-3-phosphate dehydrogenase Saci_2032 (His-tagged, recombinant) (enzyme, S. acidocaldarius DSM 639, UniProt Q4J7A2 1-431, looked up, GlpA-like FAD-dependent glycerol-3-phosphate dehydrogenase Saci_2032 of Sulfolobus acidocaldarius DSM 639, calculated mass 47.6 kDa; ORF amplified from genomic DNA; also called G3PDH; GlpA-like; source: E. coli Rosetta (DE3), pET15b-saci_2032, purified (Nickel-IDA)) MEIKTSVLVIGGGANGLFTALDLALRGIDVTLVERRDIGSGTSGRFHGLLHSGARYAVTDPESAKECIQENNIISKIAPHAIRDTGGLFLGITKEDLEFLDKFLSSLKKLGIEHKIVDNNQVLQEEPYVNKDLKIAIWVPDKVVYGYDLLSSIAVTGSLNKARIMTYNEVTEFIRDGNSIKGVKVFDKITNQMNLIKSDIIINTSGPWAFKIITMAGLEEIPILPTAGIMAVFGKKVNNAVLNRLRPPSDGDIIVPYQDTSILGTTATIIEDPDNFTISDEDVKMLIKEGSQLVPELSKTRVIRTYASVRPLMRTSEDGRKASRDFTILDHEREDGVSGLISIIGGKFTTSRLVGEKVGDLVSEKLGVRAKSKTKETKLISPSEIDFEKYLEKIGISKIFLKSVMERRGSLDEERYKTVLYLLLSLIARGR | 2 | 55 ± 9 | 44.5 | 642000 ± 111000 | 179 ± 75 | 21.1 | 128000 ± 58900 | –
5 | glycerol kinase Saci_1117 (enzyme, S. acidocaldarius DSM 639, UniProt Q4J9R1 1-498, looked up, Glycerol kinase Saci_1117 of Sulfolobus acidocaldarius DSM 639, 498 amino acids, calculated mass 55.6 kDa; ORF amplified from genomic DNA; The results call the protein C-terminally His-tagged; also called GK; GlpK homologue; source: S. acidocaldarius MW001, homologous overexpression (pSVAmalFX-saci_1117-SH10), purified (Strep-Tactin XT 4Flow column)) MSKYILAVDEGTTSARALVFDEDLNVISIAQTELTQYFPRPGYVEQNPEEIFEKQVSMIKKAVEKAKIEISQVSAIGIANQRETTIMWDSRSGRPVYNAVVWQDRRTSDITDWLKSNYLNLFKSKTGLIPDPYFSASKIKWILDNVPGVREKAERGEIKFGTVDTYLIWKLTNGKVHVTDYSNASRTMLFNIKKLEWDRDILEILEIPEAILPEVRSSSEVYGYAEPVGNIPISGDAGDQQAALFGQLGFSKGDVKCTYGTGSFILMNSGEEIYDSKDLLTTIAWKIGKDVKYALEGSIFTTGAAVQWVRDGLGLVSSSDEIESLASSVVDNGGVYFVPAFSGLGSPYWDPYARGLIIGISRGTSRGHIARAVLESIAYQVRDVIEVIKKDVGKEFVNVLKVDGGVSKNNLLMQFQADILGIRIVRPRVIETTSMGASMLAGLAVDYWSSLEELKSKWAVDREFIPSLQEDRRERLYKGWKEAVRRTIGWAREVETME | 2 | – | – | – | – | – | – | Km (purified protein [2]; 0.1 M TRIS-HCl pH 7, 50 °C): 205 ± 24 µM; Vmax (purified protein [2]; 0.1 M TRIS-HCl pH 7, 50 °C): 50.8 µmol/min/mg; kcat/Km (purified protein [2]; 0.1 M TRIS-HCl pH 7, 50 °C): 229000 ± 28400 M⁻¹ s⁻¹; Km (purified protein [3]; [7]): 24 ± 1 µM; Vmax (purified protein [3]; [7]): 45.7 µmol/min/mg; kcat/Km (purified protein [3]; [7]): 6.4e+06 ± 507000 M⁻¹ s⁻¹
